Test results reported in article PMC6874815, “Tunnel engineering to accelerate product release for better biomass-degrading abilities in lignocellulolytic enzymes” (Biotechnology for Biofuels, 2019).
Numbering of substitutions follows the chain as printed. Names and notes keep the numbering of the source.

B1: S7-xyl (Xyn10A in Table 1) (Halalkalibacterium halodurans C-125) (protein)
chain: AQGGPPKSGVFGENEKRNDQPFAWQVASLSERYQEQFDIGAAVEPYQLEGRQAQILKHHYNSLVAENAMKPESLQPREGEWNWEGADKIVEFARKHNMELRFHTLVWHSQVPEWFFIDEDGNRMVDETDPDKREANKQLLLERMENHIKTVVERYKDDVTSWDVVNEVIDDGGGLRESEWYQITGTDYIKVAFETARKYGGEEAKLYINDYNTEVPSKRDDLYNLVKDLLEQGVPIDGVGHQSHIQIGWPSIEDTRASFEKFTSLGLDNQVTELDMSLYGWPPTGAYTSYDDIPAELLQAQADRYDQLFELYEELAADISSVTFWGIADNHTWLDGRAREYNNGVGIDAPFVFDHNYRVKPAYWRIID
notes: N-terminal His-tag, pET-28a, E. coli Rosetta (DE3), codon-optimized synthetic gene; GH10
B2: S7-xyl (Xyn10A in Table 1) (Halalkalibacterium halodurans C-125; Q274S/V243N/W277R) (protein)
chain: B1 chain with V215N, Q246S, W249R
notes: as for B1

Substrate: O=[N+]([O-])c1ccc(O[C@@H]2OC[C@@H](O[C@@H]3OC[C@@H](O)[C@H](O)[C@H]3O)[C@H](O)[C@H]2O)cc1
Assay: Eadie-Hofstee plot of hydrolysis
Format: biochemical, Halalkalibacterium halodurans
Conditions: pH and temperature of kinetic assay not stated (activity assay: glycine-NaOH pH 9.0, 70 °C)
Description: Eadie-Hofstee plot of hydrolysis on S7-xyl (Xyn10A in Table 1)

[1] = mutant 254RL1, text b16 says Km slightly increased by 10%, table shows a decrease

Row | Protein | Km (listed as labelled Xyn10A) [mM] | kcat (listed as labelled Xyn10A) [s⁻¹] | kcat/Km (listed as labelled Xyn10A) [M⁻¹ s⁻¹] | Km [1] [mM] | kcat [1] [s⁻¹] | kcat/Km [1] [M⁻¹ s⁻¹]
1 | B1 | 4.42 ± 0.12 | 4.57 ± 0.31 | 1030 | – | – | –
2 | B2 | – | – | – | 4.04 ± 0.27 | 14.4 ± 0.21 | 3540
